Laboratory results reported in the supplement of paper PMC9732359.
± gives the uncertainty stated by the source.

Assay: protein stability index of a GFP-peptide fusion (yeast GPS) (PSI 1-4); higher = more stable; sorted into four equal gates, so the index is relative within each strain
How it was run: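 For each peptide, the protein stability index sums the read frequency in every gate after multiplying it by the gate number. Read frequencies came from plasmids that were PCR-amplified from each gate and Illumina-sequenced, with reads assigned to strains by barcodes. The gates were four equal bins of GFP/Cherry fluorescence ratio applied to mid-log yeast in leucine-free medium carrying a pooled library of tiled 17-residue yeast protein peptides fused downstream of GFP on a Cherry-expressing plasmid.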

Row | Sequence | protein stability index (doa10∆) | protein stability index (pdr5∆) | protein stability index (san1∆) | protein stability index (ubr1∆)
1 | EEDISDLWNNFGNIMDN [RRP6] | 3.13 ± 0.078 | 2.98 ± 0.071 | 3.02 ± 0.052 | 3.02 ± 0.1
2 | IDNSPQAISYLHKLQRM [GRR1] | 2.96 ± 0.058 | 2.48 ± 0.047 | 2.4 ± 0.045 | 2.69 ± 0.039
3 | IYRTTRQDGSYTYHSTN [ARP9] | 2.61 ± 0.08 | 2.74 ± 0.083 | 2.27 ± 0.093 | 2.53 ± 0.058
4 | YYYNTKIYKLENGERKL [YMR129W/POM152] | 3.03 ± 0.05 | 3.26 ± 0.069 | 3.1 ± 0.069 | 3.18 ± 0.04
5 | SPGSPAYSPKQDEQKHN [RPO21] | 3.11 ± 0.15 | 3.15 ± 0.11 | 3.2 ± 0.11 | 3.27 ± 0.11
6 | AQKNTQSYGGRPYGVGL [PRE5] | 3.38 ± 0.084 | 3.43 ± 0.075 | 3.23 ± 0.076 | 3.26 ± 0.058
7 | NNPDMMIQPPQQGQNMS [ROX3] | – | 2.92 ± 0.12 | 3.05 ± 0.12 | 3.14 ± 0.14
8 | PNRITLTDHRKETWLHE [SRB8] | 2.8 ± 0.082 | 3.03 ± 0.086 | 3.17 ± 0.07 | 3.22 ± 0.068
9 | NVFHGLCAGANNPKIQT [IRR1] | 1.59 ± 0.062 | 1.97 ± 0.077 | 1.48 ± 0.086 | 1.56 ± 0.073
10 | VKCKMSALQQIMYQQML [SNF2] | 2.8 ± 0.11 | 2.56 ± 0.14 | 2.72 ± 0.12 | 2.8 ± 0.074
11 | HNGAPHHAIEEAESLLQ [RPO21] | 3.07 ± 0.12 | 3.39 ± 0.18 | 2.66 ± 0.29 | 3 ± 0.088
12 | DIYFKLKKLEKEYELLT [RPT3] | 2.74 ± 0.074 | 2.51 ± 0.081 | 2.29 ± 0.14 | 1.98 ± 0.057
13 | NSAIIQNLRKELLIYKK [YIL149C/MLP2] | 3.14 ± 0.084 | 2.6 ± 0.11 | 3.23 ± 0.078 | 3.14 ± 0.053
14 | YLKDNITLLTRQRELLI [GRR1] | 2.15 ± 0.061 | 2.25 ± 0.069 | 1.84 ± 0.076 | 1.76 ± 0.052
15 | PDELIKAGVEAISQSLR [PRE5] | 2.83 ± 0.14 | 2.91 ± 0.15 | – | 1.49 ± 0.051
16 | SDGIVLAAERKVTSTLL [PRE9] | 2.39 ± 0.1 | 1.58 ± 0.065 | – | 1.85 ± 0.075
17 | IQRFFALHYLVPFIIAA [COB] | 1.39 ± 0.052 | 1.17 ± 0.063 | 1.11 ± 0.15 | 1.09 ± 0.036
18 | QQQQQQQQPQPQYNMNM [PGD1] | 2.33 ± 0.07 | 2.79 ± 0.065 | 2.67 ± 0.11 | 2.81 ± 0.16
19 | LLFINSSKLVDVYTLPS [YML103C/NUP188] | 1.97 ± 0.043 | 2 ± 0.05 | 1.98 ± 0.055 | 2.01 ± 0.054
20 | QLDLTGIFLHGKIPTLK [PRP8] | 2.39 ± 0.078 | 1.43 ± 0.058 | 1.58 ± 0.089 | 1.36 ± 0.046
21 | EMKNIRGPYLVIVPLST [SNF2] | 1.44 ± 0.054 | 1.51 ± 0.053 | 1.44 ± 0.087 | 1.38 ± 0.043
22 | VYDIMALEDEERDEILT [BRR2] | 3.15 ± 0.16 | 3.28 ± 0.15 | 3.08 ± 0.078 | 3.39 ± 0.096
23 | LPKYKEKKAASAKQTAP [MED7] | 2.71 ± 0.095 | 2.97 ± 0.078 | 2.74 ± 0.056 | 2.61 ± 0.066
24 | QLKNGLLEKYNTNELKE [MTR3] | 2.97 ± 0.055 | 2.69 ± 0.056 | 3.08 ± 0.05 | 2.65 ± 0.045
25 | NLCGDISLEALNFYITN [SIR3] | 2.55 ± 0.064 | 2.73 ± 0.059 | 2.6 ± 0.053 | 2.74 ± 0.032
26 | YSQSPPRSPGRSPTRRL [SMC4] | 2.57 ± 0.15 | 3.19 ± 0.11 | 2.98 ± 0.089 | 3.04 ± 0.11
27 | HSNESSNETIGEIQLLF [IRR1] | 2.68 ± 0.11 | 2.83 ± 0.14 | 3.27 ± 0.082 | 2.92 ± 0.084

Row | Sequence | protein stability index (doa10∆) | protein stability index (pdr5∆) | protein stability index (san1∆) | protein stability index (ubr1∆)
28 | EVEPALLLLQDYVTNPD [RPN1] | – | 1.55 ± 0.11 | – | 1.14 ± 0.17
29 | LRNKLIESNKLAGVLYE [RRP6] | 2.72 ± 0.16 | 3.04 ± 0.21 | 2.79 ± 0.28 | 2.73 ± 0.18
30 | ISGNPPLLYNSLCTVWK [SRB5] | 2.56 ± 0.051 | 2.41 ± 0.045 | 2.34 ± 0.048 | 2.38 ± 0.055
31 | SVTETESISQTPISNEQ [SRP68] | 2.89 ± 0.099 | 3.01 ± 0.078 | 2.82 ± 0.063 | 2.96 ± 0.082
32 | HMADAKIMPKDILQITK [SIR4] | 2.99 ± 0.072 | 3.29 ± 0.068 | 2.87 ± 0.071 | 2.95 ± 0.063
33 | LTSGLLYSYLIKENFFE [YJL039C/NUP192] | 1.9 ± 0.1 | 1.74 ± 0.14 | 1.71 ± 0.12 | 1.2 ± 0.077
34 | LTKKYSFKIFVDVLVIS [RRP42] | 1.22 ± 0.049 | 1.25 ± 0.051 | 1.41 ± 0.071 | 1.44 ± 0.039
35 | ILYYDVLFITPDIVGHE [BRR2] | 2.29 ± 0.058 | 2.49 ± 0.052 | 2.61 ± 0.053 | 2.84 ± 0.057
36 | AGGAADCQFWETWLGSQ [PRE2] | 3.19 ± 0.18 | 3.19 ± 0.15 | 2.97 ± 0.09 | 3.77 ± 0.13
37 | SMSLQSKNLGEINTALN [SWI1] | 2.81 ± 0.12 | 2.9 ± 0.1 | – | 3.08 ± 0.12
38 | FVSESPSFVKSGKLRDY [ISW2] | 2.41 ± 0.059 | 2.11 ± 0.051 | 2.28 ± 0.049 | 2.7 ± 0.044
39 | VKYINFGKTVKDGPFYT [RPC31] | 3 ± 0.1 | 2.84 ± 0.085 | 2.35 ± 0.061 | 2.29 ± 0.044
40 | KLQKYGAAVRLTGSDRV [RPN7] | – | 3.62 ± 0.27 | – | 2.99 ± 0.14
41 | DKPLLKAGRAFHKYRLK [RPL2A] | 2.96 ± 0.085 | 3.07 ± 0.058 | 2.16 ± 0.059 | 2.04 ± 0.061
42 | DHFIHLRNLHMKRMVAQ [SNF12] | 2.78 ± 0.063 | 2.52 ± 0.083 | 2.77 ± 0.062 | 2.45 ± 0.047
43 | VAEGKSKQDASPKPYAV [RPL8A] | 3.04 ± 0.12 | 3.29 ± 0.059 | 3.04 ± 0.07 | 3.02 ± 0.058
44 | AGKWSSKYLIKQIDIPN [ECM29] | 1.55 ± 0.068 | 1.86 ± 0.088 | 2.15 ± 0.087 | 2.05 ± 0.049
45 | TRKSLNNAVRFSKQCLI [ECM29] | 2.15 ± 0.06 | 2.96 ± 0.061 | 2.42 ± 0.06 | 2.56 ± 0.05
46 | NLPILKNHFRKHWQERV [RPL13A] | 2.33 ± 0.085 | 2.83 ± 0.073 | 2.31 ± 0.1 | 1.87 ± 0.089
47 | TFEFINIAFDAHMSIGC [YML031W/NDC1] | 1.2 ± 0.074 | 1.38 ± 0.067 | 1.19 ± 0.13 | 1.33 ± 0.062
48 | IQMNNSLQNNLQNNINN [SNF11] | 3.35 ± 0.093 | 3.32 ± 0.088 | 3.06 ± 0.087 | 3.31 ± 0.064
49 | LQVLKRERDGIKEDIEK [SMC1] | 3.06 ± 0.23 | 2.85 ± 0.12 | 3.15 ± 0.066 | 2.75 ± 0.23
50 | NISKSRAKPVTNSSILL [RRP6] | 2.14 ± 0.063 | 2.23 ± 0.065 | 2.23 ± 0.1 | 2.38 ± 0.097
51 | EPIEESSQNNSELAPIE [IRR1] | 2.89 ± 0.2 | 2.9 ± 0.13 | 2.73 ± 0.26 | 2.73 ± 0.095
52 | KFFMKHGLILELQKIWQ [SRB5] | 2.94 ± 0.096 | 3.02 ± 0.089 | 3.32 ± 0.069 | 3.18 ± 0.037
53 | RKVVFPFQLDVADMLTP [UBP6] | 2.29 ± 0.11 | 2.02 ± 0.12 | 2.57 ± 0.078 | 2.05 ± 0.096
